Measured values: article PMC2776932 (The Febs Journal, 2009)

Target: T1, GFP-tagged Lsm188p (Lsm8p with the N-terminal domain of Lsm1p) (S. cerevisiae, UniProt P47017 1-51; P47093 11-109)
T1 chain (looked up): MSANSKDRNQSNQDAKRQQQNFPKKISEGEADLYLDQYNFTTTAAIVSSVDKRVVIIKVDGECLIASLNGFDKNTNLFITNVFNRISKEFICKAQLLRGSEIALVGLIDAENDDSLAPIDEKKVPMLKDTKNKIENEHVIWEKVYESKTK
Test: co-IP

reduction of co-precipitated Lsm7p against wild-type: > 50 % reduction
B1: Lsm7–Myc (genomically encoded Lsm7p with 13myc tag) (natural protein, S. cerevisiae, UniProt P53905 1-115, looked up)
chain: MHQQHSKSENKPQQQRKKFEGPKREAILDLAKYKDSKIRVKLMGGKLVIGVLKGYDQLMNLVLDDTVEYMSNPDDENNTELISKNARKLGLTVIRGTILVSLSSAEGSDVLYMQK
